Reference: patent US20090305963A1, “Lipocalin 2 for the Treatment, Prevention, and Management of Cancer Metastasis, Angiogenesis, and Fibrosis” (priority 2005, published 2009)

Experiments:
[1] = test system: 4T1 cells injected subcutaneously; experiment: In vivo assay for primary tumor growth and pulmonary metastases; design: species or system Balb/c mice
Protocol: FIG. 4A is a graph showing the effect of lipocalin 2 on 4T1 primary tumor growth. 4T1 clones (EV, R, and RL) were suspended in PBS and injected subcutaneously in the backs of Balb/c mice. Primary tumor size was calculated based upon measurements at 1, 2, and 3 weeks. […] FIGS. 4E-F show graphs depicting the lung weight (FIG. 4E) and the number of metastatic nodules on the lung surface (FIG. 4F).
10^7 4T1-(EV, R, and RL) cells were injected subcutaneously in Balb/c mice (Asai et al., Int. J. Cancer. 76:418-422, 1998). Though this model is not the standard orthotopic model used, we have used it extensively in our laboratory to study metastases in lung. Primary tumor volume (V)=a·b·b/2, where a represents the […] tumor diameter. After 3 weeks, lung weights and the number of metastatic nodules on the lung surface were evaluated.

E-cadherin [2] = experiment: EMT phenotype, E-cadherin and vimentin protein in 4T1 clones (microscopy, western blot); assay type: cell-based, mouse; details: RL cells compared to R cells
Source text: (§1) Cells were stained as described previously (Mammoto et al., Cancer Lett. 184:165-170, 2002) and images acquired with a Delta Vision system (Applied Precision, Issaquah, Wash.) equipped with an Axiovert 100 microscope (Carl Zeiss MicroImaging Inc., Shelton, Conn.) and a Photometrics 300 series scientific-grade cooled CCD camera, reading 12-bit images, and using the 63/1.4 NA plan-Neofluar objective. For immunoprecipitation and immunoblotting, tissues were weighed, diced, soaked in ice cold RIPA buffer with 1 mM phenylmethylsulfonyl fluoride (PMSF), 1 μg/ml Aprotinin, 1 mM Na3VO4, 1 nM NaF, homogenized on ice, centrifuged at 10,000 g for 10 minutes at 4° C., and the supernatant fluid collected as total cell lysate. Cultured cells were washed, scraped, and solubilized in a lysis buffer containing 20 mM Tris-HCl pH 7.5, 150 mM NaCl, 0.5% Triton X-100, 1% aprotinin, and 1 mM PMSF. After 20 minutes on ice, the cells were pelleted by centrifugation and the supernatants were used as a cell lysate. Cell lysates or immunoprecipitated cell lysates were separated by PAGE (NuPAGE® gels; Invitrogen, Carlsbad, Calif.), followed by electroblotting onto a polyvinylidenedifluoride membrane (PVDF). Protein bands were detected using SuperSignal® West Pico Chemiluminescent Substrate (Pierce Chemical Co., Rockford, Ill.) (Hanai et al., J. Cell. Biol. 158:529-539, 2002).
To assess the effects of lipocalin 2 on ras-mediated transformation, we chose a syngeneic spontaneously metastasizing murine breast cancer model (4T1 cell line) and accelerated its metastatic potential by introduction of constitutively active mouse H-ras mutant A12 using retrovirus. […] We generated stable clones of 4T1-ras cells expressing lipocalin 2 (RL) by transfection of a lipocalin 2 expression plasmid (lipocalin 2-pcDNA3.1). […] (FIG. 2A, lower panel, and FIG. 2B). […] Expression of E-cadherin in RL cells was dependent on the dose of lipocalin 2-pcDNA3.1 expression vector (transiently introduced in a population of R cells), on a conditioned medium containing lipocalin 2 (FIGS. 2D-E), as well as on recombinant lipocalin 2 protein. R cells shown in FIG. 2D were seeded in a 6-well plate and transfected with lipocalin 2 by FuGene 6 at 40% confluency. After 48 hours, cells were trypsinized, respread on 6-well plate, and transfected again in the same conditions. After 72 hours, cells were harvested and analyzed by western blotting. EV cells in FIG. 2E were seeded in a 6-well plate with 1 ml/well containing 10% FCS with DMEM and 2 ml of CM was added at 10% confluency. After 72 hours, cells were harvested and analyzed by western blotting. CM is a mixture of media from 293T cells transfected with lipocalin 2 and from 293 cells transfected with empty vector (pcDNA3.1).

4T1 primary tumor = experiment: Western blot of total cell lysate from 4T1 primary tumors; assay type: in vivo, Balb/c mice
Source text: 4T1 clones (EV, R and RL) were suspended in PBS and injected subcutaneously in the backs of Balb/c mice. 3 weeks later, primary tumor tissue was dissected, homogenized and the supernatant fluid was collected as total cell lysate. Western blot of total cell lysate from each primary tumor for the antigen is shown. GAPDH serves as a loading control. The E-cadherin, vimentin and GAPDH data is from Hanai et al., J. Biol. Chem. 280:13641-13647 (2005).
as §1
To determine whether lipocalin 2 could affect expression of anti-angiogenic factors in vivo, we injected EV, R, or RL cells subcutaneously in the backs of Balb/c mice and dissected the primary tumors at 3 weeks post-inoculation. As shown above and in Hanai et al., supra, E-cadherin and vimentin protein expression varied reciprocally in the three tumor types. We assessed the expression of VEGF and thrombospondin-1 (TSP-1) by western blot in each tumor tissue.

caveolin-1 = experiment: Western blot of caveolin-1 expression in 4T1 clones; assay type: cell-based, mouse; details: RL vs R cells
Source text: FIGS. 17A-17C show the involvement of caveolin-1 in the MET-inducing and anti-angiogenic function of lipocalin 2.
as §1, with “Cell lysates or immunoprecipitated cell lysates were separated by PAGE (NuPAGE® gels; Invitrogen, Carlsbad, Calif.), followed by electroblotting onto a polyvinylidenedifluoride membrane (PVDF).” left out

E-cadherin [3] = experiment: E-cadherin phosphorylation (immunoprecipitation and western blot); assay type: cell-based, mouse; details: R cells vs RL cells or R cells with inhibitor
Source text: as §1

E-cadherin mRNA = E-cadherin mRNA by semi-quantitative RT-PCR; assay type: cell-based, mouse; details: EV, R and RL cells in vitro
Protocol: Total RNA was isolated from 4T1 cells in vitro using the SV Total RNA Isolation system (Promega, Madison, Wis.). Tissue RNA was collected with TRIzol® (GibcoBRL, Gaithersburg, Md.). RT-PCR was performed on the Perkin Elmer GeneAmp PCR system 2400 using Omniscript (Qiagen, Valencia, Calif.) for reverse transcription reaction, and Taq DNA polymerase (Qiagen) and primers for mouse E-cadherin (5′-[…]-3′ and 5′-[…]-3′, SEQ ID NO: 5), GAPDH (5′-ACAGTCTTCTGAGTGGCA-3′, SEQ ID NO: 6, and 5′-CCCATCACCATCTTCCAG-3′, SEQ ID NO: 7) and HA-tagged lipocalin 2 (5′-GGAGTACTTCAAGATCAC-3′, SEQ ID NO: 8 and 5′-[…]-3′, SEQ ID NO: 9) for DNA amplification. The PCR conditions were established for DNA amplification in the linear range. RT-PCR products were analyzed on 1% agarose gels.

colon cancer cells [4] = details: ectopic expression of lipocalin 2; cited from earlier work
colon cancer cells [5] = details: ectopic expression of lipocalin 2; cited from earlier work; remark: listed apart in the source

B1: lipocalin 2: human lipocalin 2 cDNA (HA tagged) in pcDNA3.1, stably expressed in 4T1-ras cells (RL clone); iron-siderophore binding protein (protein, UniProt P80188 21-198, looked up)
Neutrophil …: QDSTSDLIPAPPLSKVPLQQNFQDNQFQGKWYVVGLAGNAILREDKDPQKMYATIYELKEDKSYNVTSVLFRKKKCDYWIRTFVPGCQPGEFTLGNIKSYPGLTSYLVRVVSTNYNQHAMVFFKKVSQNREYFKITLYGRTKELTSELKENFIRFSKSLGLPENHIVFPVPIDQCIDG
modifications: HA tag
**Q.** What does the source list for B1?
**A.** primary tumor size ([1]; R vs RL tumors, 1, 2 and 3 weeks post-inoculation): Primary tumors of R cells were significantly larger than lipocalin 2 cells; reduction of number of metastatic pulmonary nodules ([1]; RL cells compared to R cells, 3 weeks after s.c. injection): 80%; lung weight ([1]; RL compared to R cells, 3 weeks): lung weights were less; E-cadherin expression (E-cadherin [2]): re-expressed E-cadherin; cell morphology (E-cadherin [2]): reverted to an epithelial morphology; vimentin expression (E-cadherin [2]): suppressed the expression of mesenchymal vimentin; E-cadherin in primary tumors (4T1 primary tumor; RL tumors vs R): more E-cadherin; vimentin in primary tumors (4T1 primary tumor; RL tumors vs R): less vimentin; TSP-1 protein in primary tumors (4T1 primary tumor; RL vs R and EV tumors, 3 weeks post-inoculation): returned in RL cells to the levels noted in EV cells; ras-induced increase of VEGF protein in primary tumors (4T1 primary tumor; RL vs R tumors, 3 weeks post-inoculation): completely abrogated; caveolin-1 expression (caveolin-1): rescued this loss of caveolin-1; E-cadherin phosphorylation (E-cadherin [3]): markedly downregulated; E-cadherin mRNA (E-cadherin mRNA): remained unchanged; invasiveness of colon cancer cells (colon cancer cells [4]): suppressed the invasiveness of colon cancer cells; liver metastasis (colon cancer cells [5]): inhibited liver metastasis
